{"source": "patent US20170157149A1", "about": "(REGENTS OF THE UNIVERSITY OF MICHIGAN, published 2017)", "molecular_target": "T1, scavenger receptor class BI (SR-BI) (UniProt Q8WTV0 1-552, limits assumed)", "T1 sequence (looked up)": "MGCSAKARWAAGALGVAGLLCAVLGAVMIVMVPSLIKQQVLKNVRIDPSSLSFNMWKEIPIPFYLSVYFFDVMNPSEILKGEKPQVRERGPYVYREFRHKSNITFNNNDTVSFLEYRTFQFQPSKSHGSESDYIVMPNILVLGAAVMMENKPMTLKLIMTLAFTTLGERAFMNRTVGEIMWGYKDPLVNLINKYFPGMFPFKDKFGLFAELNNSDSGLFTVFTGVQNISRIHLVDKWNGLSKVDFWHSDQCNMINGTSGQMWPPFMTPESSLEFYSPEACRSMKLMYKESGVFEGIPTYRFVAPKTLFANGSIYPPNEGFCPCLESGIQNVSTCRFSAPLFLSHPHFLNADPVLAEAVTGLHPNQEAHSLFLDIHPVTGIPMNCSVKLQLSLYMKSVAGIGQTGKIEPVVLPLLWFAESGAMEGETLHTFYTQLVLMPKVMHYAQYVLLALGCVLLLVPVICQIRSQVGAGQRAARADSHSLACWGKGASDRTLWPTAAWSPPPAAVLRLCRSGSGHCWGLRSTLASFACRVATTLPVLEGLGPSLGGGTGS", "experiment": "cell-based or functional assay", "note": "No end group written: not given here."}
{"binder": "PVLDLFRELLNELLEALKQKLK (other, also: sHDL lipid nanoparticle with lipids, DIO tracer label in particle, acetate salt)", "note": "[DIO labeled HDL nanoparticles (synthetic HDL of 22 A peptide and lipids)]", "values": [{"measurement": "blocking of uptake of DIO labeled HDL nanoparticles by 10 fold excess of HDL (fluorescence microscopy)", "value": "> 90", "unit": "%"}]}
